Source: the supplement of paper PMC10065799, “High-throughput profiling of sequence recognition by tyrosine kinases and SH2 domains using bacterial peptide display” (eLife, 2023)

Key:
Grb2 SH2 = Grb2 SH2 (UniProt P62993); experiment: SH2 binding enrichment of the phosphorylated peptide, bacterial display (enrichment ratio); higher = better substrate or ligand; peptides without Tyr show the background
SHP2-C SH2 = experiment: as above
c-Src SH2 = experiment: as above
FGFR1 = FGFR1 (UniProt P11362); experiment: phosphorylation enrichment, bacterial display (enrichment ratio); higher = better substrate or ligand; peptides without Tyr show the background
Chain of FGFR1 (P11362 whole entry, looked up): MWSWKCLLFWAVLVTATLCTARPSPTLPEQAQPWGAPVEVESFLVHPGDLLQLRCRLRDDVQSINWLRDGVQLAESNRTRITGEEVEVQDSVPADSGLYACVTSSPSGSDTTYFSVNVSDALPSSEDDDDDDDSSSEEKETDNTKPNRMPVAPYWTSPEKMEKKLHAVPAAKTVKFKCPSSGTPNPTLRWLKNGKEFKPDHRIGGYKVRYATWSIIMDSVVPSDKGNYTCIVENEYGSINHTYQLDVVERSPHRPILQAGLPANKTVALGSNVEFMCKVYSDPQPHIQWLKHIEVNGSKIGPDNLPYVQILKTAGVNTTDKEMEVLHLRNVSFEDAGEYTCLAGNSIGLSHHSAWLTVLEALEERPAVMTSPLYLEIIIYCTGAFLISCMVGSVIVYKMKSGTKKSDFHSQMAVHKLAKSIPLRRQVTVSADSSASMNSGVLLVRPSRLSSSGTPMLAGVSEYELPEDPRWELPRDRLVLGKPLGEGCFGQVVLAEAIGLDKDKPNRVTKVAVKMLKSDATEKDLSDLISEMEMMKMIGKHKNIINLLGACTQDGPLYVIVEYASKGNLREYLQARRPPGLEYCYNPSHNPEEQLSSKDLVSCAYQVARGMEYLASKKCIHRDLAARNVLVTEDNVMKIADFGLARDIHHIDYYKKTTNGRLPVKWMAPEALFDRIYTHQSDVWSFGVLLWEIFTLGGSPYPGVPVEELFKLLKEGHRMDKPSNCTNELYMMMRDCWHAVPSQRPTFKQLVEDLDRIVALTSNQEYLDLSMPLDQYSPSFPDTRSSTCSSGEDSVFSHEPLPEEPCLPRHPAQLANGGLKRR

Jak2 = Jak2 (UniProt O60674); experiment: as above
Chain of Jak2 (O60674 whole entry, looked up): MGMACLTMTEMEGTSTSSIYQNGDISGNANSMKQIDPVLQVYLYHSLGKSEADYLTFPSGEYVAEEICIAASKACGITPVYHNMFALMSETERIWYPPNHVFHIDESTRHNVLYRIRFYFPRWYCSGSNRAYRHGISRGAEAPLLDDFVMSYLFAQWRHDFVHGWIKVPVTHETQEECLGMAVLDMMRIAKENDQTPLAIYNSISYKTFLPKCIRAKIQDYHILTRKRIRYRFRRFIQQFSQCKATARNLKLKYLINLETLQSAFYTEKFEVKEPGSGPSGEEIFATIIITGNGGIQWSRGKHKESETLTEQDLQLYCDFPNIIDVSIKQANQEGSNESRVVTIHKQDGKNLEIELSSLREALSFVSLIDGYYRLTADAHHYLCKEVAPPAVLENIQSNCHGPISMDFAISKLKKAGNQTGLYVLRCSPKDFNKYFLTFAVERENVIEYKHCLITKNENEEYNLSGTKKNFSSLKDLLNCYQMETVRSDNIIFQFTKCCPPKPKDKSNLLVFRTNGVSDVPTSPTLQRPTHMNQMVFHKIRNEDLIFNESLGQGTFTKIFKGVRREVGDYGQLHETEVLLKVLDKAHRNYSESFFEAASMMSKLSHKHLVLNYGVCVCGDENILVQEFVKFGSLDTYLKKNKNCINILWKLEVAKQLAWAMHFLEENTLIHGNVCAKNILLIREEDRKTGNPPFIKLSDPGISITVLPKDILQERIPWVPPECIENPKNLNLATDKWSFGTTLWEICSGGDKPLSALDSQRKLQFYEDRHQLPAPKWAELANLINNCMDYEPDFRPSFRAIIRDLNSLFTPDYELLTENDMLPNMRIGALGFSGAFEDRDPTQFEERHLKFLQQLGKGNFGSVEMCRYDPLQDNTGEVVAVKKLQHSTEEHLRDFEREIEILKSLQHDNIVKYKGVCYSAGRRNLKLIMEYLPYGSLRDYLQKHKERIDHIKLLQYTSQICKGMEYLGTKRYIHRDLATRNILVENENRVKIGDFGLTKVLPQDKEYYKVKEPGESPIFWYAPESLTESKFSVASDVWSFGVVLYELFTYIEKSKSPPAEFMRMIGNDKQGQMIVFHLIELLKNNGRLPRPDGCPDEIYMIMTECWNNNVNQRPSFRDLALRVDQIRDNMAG

MERTK = MERTK (UniProt Q12866); experiment: as above
Chain of MERTK (Q12866 whole entry, looked up): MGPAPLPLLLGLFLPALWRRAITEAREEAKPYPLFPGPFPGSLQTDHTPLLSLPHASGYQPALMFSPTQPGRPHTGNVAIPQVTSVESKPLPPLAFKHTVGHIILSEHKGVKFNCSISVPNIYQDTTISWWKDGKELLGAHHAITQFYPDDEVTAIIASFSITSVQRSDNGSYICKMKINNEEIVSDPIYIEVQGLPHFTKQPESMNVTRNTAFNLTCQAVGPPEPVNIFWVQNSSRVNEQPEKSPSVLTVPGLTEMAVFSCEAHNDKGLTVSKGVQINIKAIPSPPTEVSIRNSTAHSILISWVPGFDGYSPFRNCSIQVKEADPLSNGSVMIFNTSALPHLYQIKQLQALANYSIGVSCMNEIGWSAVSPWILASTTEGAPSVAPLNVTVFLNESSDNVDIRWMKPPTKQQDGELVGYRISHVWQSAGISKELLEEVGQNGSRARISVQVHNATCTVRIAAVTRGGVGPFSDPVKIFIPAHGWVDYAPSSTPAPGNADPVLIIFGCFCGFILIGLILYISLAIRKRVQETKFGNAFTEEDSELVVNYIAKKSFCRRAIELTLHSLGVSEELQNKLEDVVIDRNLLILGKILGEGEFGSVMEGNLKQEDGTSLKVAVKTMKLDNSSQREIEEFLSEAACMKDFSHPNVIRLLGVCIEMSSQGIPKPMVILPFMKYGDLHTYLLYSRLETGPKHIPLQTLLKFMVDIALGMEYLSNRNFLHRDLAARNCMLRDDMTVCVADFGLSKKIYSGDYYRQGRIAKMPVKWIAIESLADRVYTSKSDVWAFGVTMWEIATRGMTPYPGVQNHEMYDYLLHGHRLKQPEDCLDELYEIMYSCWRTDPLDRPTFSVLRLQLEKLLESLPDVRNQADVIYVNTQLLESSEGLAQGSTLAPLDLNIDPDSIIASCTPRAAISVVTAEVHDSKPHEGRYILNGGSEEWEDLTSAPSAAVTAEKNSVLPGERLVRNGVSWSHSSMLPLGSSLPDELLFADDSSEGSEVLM

Fer (mouse) = experiment: as above
EPHB1 = EPHB1 (UniProt P54762); experiment: as above
c-Src = experiment: as above
AncSZ = experiment: as above
Fyn = Fyn (UniProt P06241); experiment: as above
Chain of Fyn (P06241 whole entry, looked up): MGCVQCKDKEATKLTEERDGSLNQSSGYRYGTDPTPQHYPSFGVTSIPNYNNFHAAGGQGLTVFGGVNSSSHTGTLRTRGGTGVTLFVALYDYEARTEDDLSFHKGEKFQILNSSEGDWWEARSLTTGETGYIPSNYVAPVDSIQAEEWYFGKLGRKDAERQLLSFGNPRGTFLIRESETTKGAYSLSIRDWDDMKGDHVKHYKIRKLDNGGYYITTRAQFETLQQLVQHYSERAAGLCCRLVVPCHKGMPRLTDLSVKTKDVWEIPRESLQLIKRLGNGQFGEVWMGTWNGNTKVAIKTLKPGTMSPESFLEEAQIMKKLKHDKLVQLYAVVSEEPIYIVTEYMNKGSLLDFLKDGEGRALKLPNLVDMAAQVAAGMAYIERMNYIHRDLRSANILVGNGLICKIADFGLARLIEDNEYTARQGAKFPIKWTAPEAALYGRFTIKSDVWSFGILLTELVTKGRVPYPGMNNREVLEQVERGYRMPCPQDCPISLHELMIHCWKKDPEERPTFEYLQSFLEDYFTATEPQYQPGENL

FGFR3 = FGFR3 (UniProt P22607); experiment: as above
c-Abl (mouse) = experiment: as above
Fes = Fes (UniProt P07332); experiment: as above
Chain of Fes (P07332 whole entry, looked up): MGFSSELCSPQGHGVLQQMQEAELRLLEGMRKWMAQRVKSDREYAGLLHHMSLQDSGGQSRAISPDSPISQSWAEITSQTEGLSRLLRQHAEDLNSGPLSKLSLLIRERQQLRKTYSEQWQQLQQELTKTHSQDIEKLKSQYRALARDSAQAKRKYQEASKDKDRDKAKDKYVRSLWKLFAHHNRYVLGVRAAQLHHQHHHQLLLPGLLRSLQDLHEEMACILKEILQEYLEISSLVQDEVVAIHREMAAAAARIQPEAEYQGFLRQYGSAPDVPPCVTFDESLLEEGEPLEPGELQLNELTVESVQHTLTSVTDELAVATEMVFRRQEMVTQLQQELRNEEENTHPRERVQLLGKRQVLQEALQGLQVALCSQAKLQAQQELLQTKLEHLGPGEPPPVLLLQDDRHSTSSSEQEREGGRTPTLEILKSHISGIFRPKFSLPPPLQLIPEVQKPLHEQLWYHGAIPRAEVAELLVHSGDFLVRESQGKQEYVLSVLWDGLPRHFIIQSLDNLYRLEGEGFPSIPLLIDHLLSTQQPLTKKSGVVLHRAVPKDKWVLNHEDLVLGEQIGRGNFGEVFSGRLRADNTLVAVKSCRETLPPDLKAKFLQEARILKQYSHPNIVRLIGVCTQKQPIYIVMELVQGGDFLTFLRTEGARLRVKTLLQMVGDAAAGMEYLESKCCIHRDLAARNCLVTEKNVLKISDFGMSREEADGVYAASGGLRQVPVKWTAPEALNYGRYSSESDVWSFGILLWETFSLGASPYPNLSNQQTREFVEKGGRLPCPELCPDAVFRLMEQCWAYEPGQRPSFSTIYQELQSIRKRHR

EPHB2 = EPHB2 (UniProt P29323); experiment: as above
Hck = Hck (UniProt P08631); experiment: as above
Chain of Hck (P08631 whole entry, looked up, the tested form may be a part): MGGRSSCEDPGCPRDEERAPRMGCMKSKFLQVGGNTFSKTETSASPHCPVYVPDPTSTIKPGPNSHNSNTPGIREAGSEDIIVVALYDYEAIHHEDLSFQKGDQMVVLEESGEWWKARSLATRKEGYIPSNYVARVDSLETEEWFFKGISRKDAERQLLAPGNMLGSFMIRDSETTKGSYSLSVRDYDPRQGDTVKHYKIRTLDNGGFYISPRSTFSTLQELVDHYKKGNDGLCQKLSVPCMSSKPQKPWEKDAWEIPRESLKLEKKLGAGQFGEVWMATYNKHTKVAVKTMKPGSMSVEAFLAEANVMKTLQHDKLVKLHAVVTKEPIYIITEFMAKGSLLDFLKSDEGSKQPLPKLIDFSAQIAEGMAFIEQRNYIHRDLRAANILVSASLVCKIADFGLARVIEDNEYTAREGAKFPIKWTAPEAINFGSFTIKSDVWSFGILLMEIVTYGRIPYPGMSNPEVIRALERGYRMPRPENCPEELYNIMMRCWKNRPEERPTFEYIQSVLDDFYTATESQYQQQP
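Wherever SH2 binding enrichment of the phosphorylated peptide, bacterial display is given: peptide library displayed on the E. coli surface as eCPX fusions, selected cells deep-sequenced, score is each peptide's frequency after selection divided by its frequency in the input.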
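Wherever phosphorylation enrichment, bacterial display is given: 11-residue human phosphosite peptides and single-mutation variants displayed on the E. coli surface, counted by deep sequencing, each peptide's frequency after selection divided by its frequency in the unselected input library; frequency after pTyr selection over input frequency; kinase dosed for 20-30% of maximal phosphorylation in three min.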

Row | Sequence | SH2 binding enrichment (Grb2 SH2) | SH2 binding enrichment (SHP2-C SH2) | SH2 binding enrichment (c-Src SH2) | phosphorylation enrichment (FGFR1) | phosphorylation enrichment (Jak2) | phosphorylation enrichment (MERTK) | phosphorylation enrichment (Fer (mouse)) | phosphorylation enrichment (EPHB1) | phosphorylation enrichment (c-Src) | phosphorylation enrichment (AncSZ) | phosphorylation enrichment (Fyn) | phosphorylation enrichment (FGFR3) | phosphorylation enrichment (c-Abl (mouse)) | phosphorylation enrichment (Fes) | phosphorylation enrichment (EPHB2) | phosphorylation enrichment (Hck)
1 | GTATAYLCGVK [ALPL_Y117] | 0.763 | 0.695 | 0.432 | 0.485 | 0.89 | 0.352 | 0.463 | 0.512 | 0.427 | 0.756 | 0.472 | 0.595 | 0.667 | 1.07 | 0.507 | 0.501
2 | TFGVLYKARNK [CDK2_Y19_V18L_YF] | 0.828 | 0.423 | 0.49 | 0.436 | 0.796 | 0.343 | 0.536 | 0.592 | 0.424 | 0.838 | 0.421 | 0.586 | 0.487 | 0.906 | 0.599 | 0.561
3 | QEIATCRRLLE [KRT14_Y415_Y415C] | 0.908 | 0.469 | 0.704 | 0.634 | 0.643 | 0.407 | 0.337 | 0.412 | 0.372 | 0.896 | 0.352 | 0.508 | 0.641 | 0.928 | 0.502 | 0.635
4 | FEGRSYSACTT [MMP9_Y241] | 0.818 | 0.598 | 0.573 | 0.728 | 0.947 | 0.492 | 0.516 | 0.643 | 0.428 | 0.926 | 0.541 | 0.709 | 0.856 | 1.13 | 0.616 | 0.557
5 | RGEKQYLATPL [ALOX12_Y295_A298T] | 0.784 | 0.766 | 0.569 | 1.06 | 0.931 | 0.53 | 0.571 | 0.598 | 0.812 | 0.861 | 0.665 | 0.711 | 1.02 | 1.01 | 0.342 | 0.484
6 | RLKAKYAAATG [GLI3_Y933] | 0.811 | 0.698 | 0.511 | 0.36 | 0.692 | 0.414 | 0.486 | 0.421 | 0.529 | 0.64 | 0.379 | 0.395 | 0.601 | 0.611 | 0.526 | 0.464
7 | CENCHYPIVPL [LCK_Y25] | 0.943 | 0.58 | 0.841 | 0.542 | 0.643 | 0.479 | 0.588 | 0.63 | 0.454 | 0.698 | 0.463 | 0.58 | 0.567 | 0.749 | 0.485 | 0.463
8 | FAKSVYWDNTL [NUP107_Y296_E298D_YF] | 0.781 | 0.694 | 0.691 | 0.525 | 1.02 | 0.725 | 0.463 | 0.719 | 0.76 | 1 | 0.679 | 0.688 | 0.656 | 1.04 | 0.772 | 0.578
9 | RIRRRYCQVLN [IQCF1_Y144] | 0.666 | 0.438 | 0.482 | 0.708 | 0.614 | 0.609 | 0.835 | 0.784 | 0.575 | 0.673 | 0.583 | 0.703 | 0.455 | 1.11 | 0.592 | 0.826
10 | TFEFRYLEDQD [CNOT3_Y746_R750Q_YF] | 0.908 | 0.865 | 0.602 | 0.497 | 1.92 | 0.643 | 0.438 | 0.646 | 0.597 | 1.89 | 0.506 | 0.903 | 0.997 | 1.44 | 0.44 | 0.622
11 | QTLTDYDIRFF [CSNK2A1_Y131_YF] | 0.794 | 0.651 | 0.413 | 0.569 | 0.998 | 0.531 | 0.604 | 0.626 | 0.481 | 1.16 | 0.709 | 0.888 | 0.737 | 1.48 | 0.677 | 0.691
12 | RPFRPYIIRGM [LRP5_Y1531_YF] | 0.735 | 0.625 | 0.482 | 1.03 | 0.748 | 0.781 | 0.456 | 0.633 | 0.647 | 1.14 | 0.611 | 0.88 | 0.532 | 1.2 | 0.709 | 0.655
13 | VSYDEYRYRSF [CFTR_Y515_V520F] | 0.72 | 0.717 | 0.676 | 0.486 | 0.983 | 0.522 | 0.435 | 0.69 | 0.939 | 0.89 | 0.548 | 0.606 | 0.916 | 0.951 | 0.467 | 0.598
14 | QMQNPYSSHSS [MUC13_Y501_R503S] | 0.921 | 0.526 | 0.49 | 0.636 | 0.467 | 0.432 | 1.26 | 0.546 | 0.818 | 0.625 | 1.15 | 0.611 | 0.446 | 0.659 | 0.718 | 0.449
15 | PEADKYHLTYA [FGG_Y300_R301H] | 0.561 | 0.704 | 0.655 | 0.665 | 0.908 | 0.742 | 0.282 | 0.51 | 0.915 | 0.685 | 0.608 | 0.771 | 1.15 | 0.985 | 0.592 | 0.701
16 | RLPINYTTRRI [LAMA2_Y2894_G2889R] | 0.76 | 0.636 | 0.471 | 0.743 | 0.547 | 0.663 | 0.289 | 0.433 | 0.626 | 0.873 | 0.35 | 0.839 | 0.638 | 0.602 | 0.519 | 0.534
17 | KQRKEYMHRWQ [IQGAP2_Y710_R714W] | 2.29 | 2.21 | 2.02 | 0.577 | 1.68 | 0.519 | 0.617 | 0.652 | 0.584 | 0.846 | 0.523 | 1.16 | 1.05 | 1.02 | 0.746 | 0.613
18 | WAFNLYDINKF [KCNIP3_Y174_D179Y_YF] | 0.905 | 0.731 | 0.519 | 0.497 | 0.933 | 3.37 | 4.81 | 2.22 | 1.61 | 1.02 | 2.08 | 0.669 | 0.662 | 1.26 | 3.11 | 3.36
19 | EVTLTYATGIK [NFKB1_Y485_T489I] | 0.916 | 0.646 | 0.413 | 0.421 | 1.06 | 0.404 | 0.473 | 0.475 | 0.508 | 0.896 | 0.477 | 0.634 | 0.66 | 1.15 | 0.424 | 0.555
20 | LIHLHYIRKDF [BBS4_Y43_YF] | 2.06 | 2.75 | 1.6 | 0.937 | 0.787 | 0.471 | 0.984 | 1.17 | 0.527 | 1.51 | 0.871 | 1.22 | 0.612 | 1.18 | 1.01 | 0.637
21 | KDGIGYISAAE [CALM2_Y100_N98I] | 1.07 | 0.686 | 0.598 | 0.476 | 0.589 | 0.476 | 0.464 | 0.393 | 0.427 | 0.635 | 0.466 | 0.517 | 0.557 | 0.763 | 0.424 | 0.454
22 | AHAGEYGEEAL [HBA1_Y25_A27E] | 0.745 | 0.599 | 0.473 | 0.66 | 1.35 | 0.544 | 0.615 | 0.664 | 0.582 | 1.25 | 0.576 | 0.793 | 1.01 | 1.47 | 0.736 | 0.821
23 | GNEEAYGSSHI [FAM171B_Y522_R524S] | 0.663 | 0.751 | 0.435 | 0.48 | 0.718 | 0.526 | 0.4 | 0.465 | 0.549 | 0.763 | 0.521 | 0.518 | 0.866 | 0.817 | 0.525 | 0.489

Continued, in another order:

Row | SH2 binding enrichment (Grb2 SH2) | SH2 binding enrichment (SHP2-C SH2) | SH2 binding enrichment (c-Src SH2) | Sequence | phosphorylation enrichment (FGFR1) | phosphorylation enrichment (Jak2) | phosphorylation enrichment (MERTK) | phosphorylation enrichment (Fer (mouse)) | phosphorylation enrichment (EPHB1) | phosphorylation enrichment (c-Src) | phosphorylation enrichment (AncSZ) | phosphorylation enrichment (Fyn) | phosphorylation enrichment (FGFR3) | phosphorylation enrichment (c-Abl (mouse)) | phosphorylation enrichment (Fes) | phosphorylation enrichment (EPHB2) | phosphorylation enrichment (Hck)
24 | 0.845 | 0.722 | 0.458 | VMTLDYSKTVV [SETD2_Y770_V768L] | 0.419 | 0.775 | 0.372 | 0.449 | 0.571 | 0.415 | 0.719 | 0.37 | 0.701 | 0.643 | 0.738 | 0.52 | 0.439
25 | 0.743 | 0.604 | 0.309 | PLDVEYFTLQI [TP53_Y327_G325V] | 7.84 | 2.69 | 0.55 | 0.578 | 0.804 | 2.72 | 2.47 | 2.35 | 5.88 | 1.11 | 1.46 | 0.659 | 1.2
26 | 0.868 | 3.23 | 0.942 | DENCFYTRAAS [RPS19_Y54_W52C] | 0.594 | 0.841 | 0.461 | 0.485 | 0.587 | 0.722 | 1 | 0.569 | 0.728 | 0.675 | 0.936 | 0.554 | 0.576
27 | 0.948 | 0.917 | 0.444 | DEDYLCREELA [POR_Y575_Y575C] | 0.683 | 0.929 | 0.676 | 0.812 | 0.842 | 0.556 | 1.68 | 0.878 | 1.43 | 0.737 | 1.54 | 0.725 | 0.99
28 | 0.726 | 0.781 | 0.569 | SVVVPYEPHEV [TP53_Y220_P223H] | 0.542 | 1.18 | 0.493 | 1.38 | 0.716 | 0.513 | 1.05 | 0.54 | 0.835 | 0.803 | 1.25 | 0.615 | 0.577
29 | 0.878 | 0.78 | 0.516 | FADIAYNFRHG [PAH_Y166_YF] | 0.581 | 0.734 | 0.428 | 0.396 | 0.522 | 0.532 | 0.67 | 0.558 | 0.512 | 0.578 | 0.713 | 0.514 | 0.506
30 | 0.865 | 0.702 | 0.425 | HYVYYYSYLLK [PTEN_Y178_R173H] | 6.85 | 2.42 | 5.74 | 0.888 | 2.74 | 3.08 | 2.09 | 1.29 | 5.92 | 2.31 | 2.12 | 1.37 | 3.19
31 | 0.984 | 1.03 | 0.797 | AVISVYDLVVV [PSEN1_Y256_A260V] | 0.726 | 1.29 | 6.78 | 13.3 | 5.61 | 3.85 | 1.54 | 5.2 | 1.02 | 1 | 1.46 | 4.03 | 4.14
32 | 1.54 | 2.18 | 6.14 | QNTGYYYDLYG [PTPN11_Y62_D61Y] | 21.1 | 8.69 | 15.6 | 4.32 | 18.4 | 7.11 | 1.9 | 7.01 | 17.8 | 1.25 | 1.96 | 17.9 | 9.49
33 | 1.19 | 0.833 | 0.887 | NTGNFYDLFGG [PTPN11_Y63_D61N_YF] | 0.537 | 0.796 | 7.84 | 3.08 | 0.436 | 4.88 | 0.844 | 6.58 | 0.641 | 0.766 | 0.955 | 0.548 | 4.7
